B1: transferrin: commercially available bovine transferrin (Nihon Pharmaceutical Co., Ltd.), SEQ ID No. 4 (protein, listed as Bos taurus)
chain: MRPAVRALLACAVLGLCLADPERTVRWCTISTHEANKCASFRENVLRILESGPFVSCVKKTSHMDCIKAISNNEADAVTLDGGLVYEAGLKPNNLKPVVAEFHGTKDNPQTHYYAVAVVKKDTDFKLNELRGKKSCHTGLGRSAGWNIPMAKLYKELPDPQESIQRAAANFFSASCVPCADQSSFPKLCQLCAGKGTDKCACSNHEPYFGYSGAFKCLMEGAGDVAFVKHSTVFDNLPNPEDRKNYELLCGDNTRKSVDDYQECYLAMVPSHAVVARTVGGKEDVIWELLNHAQEHFGKDKPDNFQLFQSPHGKDLLFKDSADGFLKIPSKMDFELYLGYEYVTALQNLRESKPPDSSKDECMVKWCAIGHQERTKCDRWSGFSGGAIECETAENTEECIAKIMKGEADAMSLDGGYLYIAGKCGLVPVLAENYKTEGESCKNTPEKGYLAVAVVKTSDANINWNNLKDKKSCHTAVDRTAGWNIPMGLLYSKINNCKFDEFFSAGCAPGSPRNSSLCALCIGSEKGTGKECVPNSNERYYGYTGAFRCLVEKGDVAFVKDQTVIQNTDGNNNEAWAKNLKKENFEVLCKDGTRKPVTDAENCHLARGPNHAVVSRKDKATCVEKILNKQQDDFGKSVTDCTSNFCLFQSNSKDLLFRDDTKCLASIAKKTYDSYLGDDYVRAMTNLRQCSTSKLLEACTFHKP
modifications: sig_peptide (1)...(19) Transferrin
B2: bovine lactoferrin: commercially available bovine lactoferrin (Morinaga Milk Industry), 78 kDa, SEQ ID No. 2 (protein, listed as Bos taurus)
chain: MKLFVPALLSLGALGLCLAAPRKNVRWCTISQPEWFKCRRWQWRMKKLGAPSITCVRRAFALECIRAIAEKKADAVTLDGGMVFEAGRDPYKLRPVAAEIYGTKESPQTHYYAVAVVKKGSNFQLDQLQGRKSCHTGLGRSAGWIIPMGILRPYLSWTESLEPLQGAVAKFFSASCVPCIDRQAYPNLCQLCKGEGENQCACSSREPYFGYSGAFKCLQDGAGDVAFVKETTVFENLPEKADRDQYELLCLNNSRAPVDAFKECHLAQVPSHAVVARSVDGKEDLIWKLLSKAQEKFGKNKSRSFQLFGSPPGQRDLLFKDSALGFLRIPSKVDSALYLGSRYLTTLKNLRETAEEVKARYTRVVWCAVGPEEQKKCQQWSQQSGQNVTCATASTTDDCIVLVLKGEADALNLDGGYIYTAGKCGLVPVLAENRKSSKHSSLDCVLRPTEGYLAVAVVKKANEGLTWNSLKDKKSCHTAVDRTAGWNIPMGLIVNQTGSCAFDEFFSQSCAPGADPKSRLCALCAGDDQGLDKCVPNSKEKYYGYTGAFRCLAEDVGDVAFVKNDTVWENTNGESTADWAKNLNREDFRLLCLDGTRKPVTEAQSCHLAVAPNHAVVSRSDRAAHVKQVLLHQQALFGKNGKNCPDKFCLFKSETKNLLFNDNTECLAKLGGRPTYEEYLGTEYVTAIANLKKCSTSPLLEACAFLTR
modifications: sig_peptide (1)...(19) Lactoferrin
B3: human lactoferrin: commercially available human lactoferrin (Morinaga Milk Industry), SEQ ID No. 1 (protein, listed as Homo Sapiens)
chain: MKLVFLVLLFLGALGLCLAGRRRRSVQWCAVSQPEATKCFQWQRNMRKVRGPPVSCIKRDSPIQCIQAIAENRADAVTLDGGFIYEAGLAPYKLRPVAAEVYGTERQPRTHYYAVAVVKKGGSFQLNELQGLKSCHTGLRRTAGWNVPIGTLRPFLNWTGPPEPIEAAVARFFSASCVPGADKGQFPNLCRLCAGTGENKCAFSSQEPYFSYSGAFKCLRDGAGDVAFIRESTVFEDLSDEAERDEYELLCPDNTRKPVDKFKDCHLARVPSHAVVARSVNGKEDAIWNLLRQAQEKFGKDKSPKFQLFGSPSGQKDLLFKDSAIGFSRVPPRIDSGLYLGSGYFTAIQNLRKSEEEVAARRARVVWCAVGEQELRKCNQWSGLSEGSVTCSSASTTEDCIALVLKGEADAMSLDGGYVYTAGKCGLVPVLAENYKSQQSSDPDPNCVDRPVEGYLAVAVVRRSDTSLTWNSVKGKKSCHTAVDRTAGWNIPMGLLFNQTGSCKFDEYFSQSCAPGSDPRSNLCALCIGDEQGENKCVPNSNERYYGYTGAFRCLAENAGDVAFVKDVTVLQNTDGNNNEAWAKDLKLADFALLCLDGKRKPVTEARSCHLAMAPNHAVVSRMDKVERLKQVLLHQQAKFGRNGSDCPDKFCLFQSETKNLLFNDNTECLARLHGKTTYEKYLGPQYVAGITNLKKCSTSPLLEACEFLRK
modifications: sig_peptide (1)...(19) Lactoferrin

Experiments:
Type in all cases: biochemical
[1] = molecular target: T1, cathepsin B (Homo sapiens, UniProt P07858); assay: cysteine protease inhibitory activity (Z-Phe-Arg-MCA fluorescence, method of Barrett et al.); settings: pH 5.5, 37° C., 10 minutes
T1 construct: purchased Wako Pure Chemical Industries, Ltd
Protocol: (§1) Inhibitory activities against cysteine proteases including papain, cathepsin B, cathepsin L and cathepsin S (these proteases are available from Wako Pure Chemical Industries, Ltd.) were determined using commercially available bovine lactoferrin (manufactured by Morinaga Milk Industry Co., Ltd.) as a test sample. The inhibitory activity was measured with reference to the method by Barrett et al. (“Methods in Enzymology,” Vol. 80, p 535-561, 1981) as described below. Namely, Z-Phe-Arg-MCA (final concentration of […]: manufactured by Peptide Institute, Inc.) was added as a substrate to 0.1 M acetic acid buffer solution (pH 5.5) in which sample was dissolved at each concentration. Then, cysteine protease (a protease selected from papain, cathepsin B, cathepsin L and cathepsin S in the present test: manufactured by Wako Pure Chemical Industries, Ltd.) solution (final concentration: 15 units/ml) was added, the whole solution was mixed and the reaction was carried out at 37° C. for 10 minutes. Subsequently, fluorescence intensity (excitation wavelength: 370 nm, emission wavelength: 460 nm) of AMC (7-Amino-4-Methyl-Coumarin) released from the digested substrate was measured with a fluorescence spectrometer (manufactured by Hitachi, Ltd.).

[2] = molecular target: T2, cathepsin L (Homo sapiens, UniProt P07711); assay: as above; settings: pH 5.5, 37° C., 10 minutes
T2 construct: purchased Wako Pure Chemical Industries, Ltd
T2 sequence (P07711 114-333, species assumed): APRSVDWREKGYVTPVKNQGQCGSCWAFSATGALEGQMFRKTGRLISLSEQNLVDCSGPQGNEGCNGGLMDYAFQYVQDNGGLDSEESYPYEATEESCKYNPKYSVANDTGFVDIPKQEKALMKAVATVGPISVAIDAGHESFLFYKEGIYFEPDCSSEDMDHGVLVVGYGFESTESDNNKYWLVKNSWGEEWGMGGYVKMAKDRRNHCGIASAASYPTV
Protocol: as §1

[3] = molecular target: T3, papain (Carica papaya, UniProt P00784); assay: as above; settings: pH 5.5, 37° C., 10 minutes
T3 construct: purchased Wako Pure Chemical Industries, Ltd
T3 sequence (P00784 134-345): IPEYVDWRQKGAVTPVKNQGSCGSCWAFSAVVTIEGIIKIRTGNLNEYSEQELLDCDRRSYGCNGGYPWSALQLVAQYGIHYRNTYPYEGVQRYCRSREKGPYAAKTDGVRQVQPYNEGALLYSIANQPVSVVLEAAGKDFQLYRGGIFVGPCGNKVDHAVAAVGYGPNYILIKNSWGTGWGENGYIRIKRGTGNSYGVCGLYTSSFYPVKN
Protocol: as §1

[4] = molecular target: T3, papain; assay: reverse zymography with papain on gelatin-containing SDS-polyacrylamide gel; settings: 12.5% SDS-polyacrylamide gel with 0.1% gelatin, papain digestion pH 5.5, 37° C., 10 hours
Description: The inventor used a technique “reverse zymography” as a method of detecting protease inhibitory substance and detected a protease inhibitory substance located on the gel of SDS-polyacrylamide gel electrophoresis. The reverse zymography is based on a technique opposite of the normal zymography, and the basic principle of the reverse zymography is as follows. That is, a sample containing protease inhibitory substance is applied onto SDS-polyacrylamide gel containing gelatin, and electrophoresis is performed, followed by soaking the gel in a protease solution to degrade protein in the gel. Protease activity is inhibited on a portion where an inhibitory substance is present and gelatin of the portion avoids being degraded by protease and is stained with staining solution, which enables detection of inhibitory substance.
Using total milk protein and bovine lactoferrin (manufactured by Morinaga Milk Industry Co., Ltd.) as samples, electrophoresis (hereinafter, SDS-polyacrylamide gel electrophoresis is sometimes abbreviated to SDS-PAGE) was conducted with 12.5% SDS-polyacrylamide gel containing 0.1% of gelatin. After electrophoresis, the gel was washed by immersing it in a 2.5% Triton X-100 solution for 45 minutes, and further washed by repeating three times the operation of immersing the gel in distilled water for 45 minutes. […]

[5] = molecular target: T4, cathepsin S (Homo sapiens, UniProt P25774); assay: cysteine protease inhibitory activity (Z-Phe-Arg-MCA fluorescence, method of Barrett et al.); settings: pH 5.5, 37° C., 10 minutes
T4 construct: purchased Wako Pure Chemical Industries, Ltd
T4 sequence (P25774 115-331, species assumed): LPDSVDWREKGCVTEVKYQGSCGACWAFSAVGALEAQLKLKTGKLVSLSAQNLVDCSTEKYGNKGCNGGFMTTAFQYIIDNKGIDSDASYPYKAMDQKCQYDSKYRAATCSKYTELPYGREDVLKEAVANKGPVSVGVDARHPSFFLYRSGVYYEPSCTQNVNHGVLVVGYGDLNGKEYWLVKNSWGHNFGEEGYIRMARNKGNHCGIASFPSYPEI
Protocol: as §1

Molecule | inhibition rate at each concentration (%) ([1]; inhibitor 10^−4M) | inhibition rate at each concentration (%) ([2]; inhibitor 10^−4M) | inhibition of cysteine protease activity ([3]; inhibitor 10^−3 M) | band in reverse zymography using papain [4] | inhibition rate at each concentration (%) ([1]; inhibitor 10^−5M) | inhibition rate at each concentration (%) ([2]; inhibitor 10^−6M) | inhibition rate at each concentration (%) ([5]; inhibitor 10^−4M) | inhibition rate at each concentration (%) ([5]; inhibitor 10^−5M) | inhibition rate at each concentration (%) ([3]; inhibitor 10^−6M)
B1 | more than 30% | more than 30% | completely inhibited |  |  |  |  |  | 
B2 |  |  |  | positive band |  |  |  |  | 
B3 | almost completely inhibited |  |  |  | more than 80% | completely inhibited | almost completely inhibited | more than 80% | completely inhibited

— patent publication US20050176123A1, “Protease inhibitor” (Morinaga Milk Industry Co., Ltd., priority 2002, published 2005)
